Assay results as given in PMC2728434 (The EMBO Journal, 2009).
Read-outs that look alike come from different tables or passages of the source.

Key:
[1] = molecular target: T1, Importin β (Kap95p), scImpβ-His6 (yeast, UniProt Q06142 1-861); test: SEC
T1 sequence (looked up): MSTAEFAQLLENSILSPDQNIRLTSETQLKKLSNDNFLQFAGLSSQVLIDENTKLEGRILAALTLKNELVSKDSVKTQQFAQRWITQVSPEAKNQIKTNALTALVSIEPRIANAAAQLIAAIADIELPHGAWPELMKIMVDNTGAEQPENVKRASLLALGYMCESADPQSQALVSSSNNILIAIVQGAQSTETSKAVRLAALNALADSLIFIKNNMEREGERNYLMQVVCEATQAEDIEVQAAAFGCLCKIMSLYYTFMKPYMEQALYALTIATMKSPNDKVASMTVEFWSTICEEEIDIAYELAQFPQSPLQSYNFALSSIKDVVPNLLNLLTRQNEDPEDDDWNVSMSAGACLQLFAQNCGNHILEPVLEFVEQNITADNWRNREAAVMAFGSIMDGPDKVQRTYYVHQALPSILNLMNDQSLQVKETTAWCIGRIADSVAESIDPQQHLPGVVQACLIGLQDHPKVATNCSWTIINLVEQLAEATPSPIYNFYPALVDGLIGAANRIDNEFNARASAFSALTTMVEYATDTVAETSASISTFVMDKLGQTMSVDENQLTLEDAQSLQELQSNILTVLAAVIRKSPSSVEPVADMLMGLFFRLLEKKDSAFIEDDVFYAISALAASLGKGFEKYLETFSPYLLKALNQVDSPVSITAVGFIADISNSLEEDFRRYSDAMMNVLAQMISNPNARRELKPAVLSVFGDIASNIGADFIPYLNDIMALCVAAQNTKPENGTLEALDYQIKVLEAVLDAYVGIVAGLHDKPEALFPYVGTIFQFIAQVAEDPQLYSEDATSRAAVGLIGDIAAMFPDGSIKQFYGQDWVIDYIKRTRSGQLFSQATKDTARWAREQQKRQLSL

[2] = molecular target: T1, Importin β (Kap95p), scImpβ-His6; test: SEC; remark: listed apart in the source

B1: IBB-MBP-mEGFP (domain or fragment, Saccharomyces cerevisiae, UniProt Q02821 2-63, looked up)
chain: DNGTDSSTSKFVPEYRRTNFKNKGRFSADELRRRRDTQQVELRKAKRDEALAKRRNFIPPTD
[1]
  binding result: binds

B2: IBB-ZsGreen (domain or fragment, Saccharomyces cerevisiae, UniProt Q02821 2-63, looked up)
chain: DNGTDSSTSKFVPEYRRTNFKNKGRFSADELRRRRDTQQVELRKAKRDEALAKRRNFIPPTD
[2]
  binding result: binds
